Laboratory results: patent US20180105585A1 (published 2018)

Experiments:
[1] = molecular target: T1, Biotinylated human Amyloid beta 1-42 peptide (human, N-terminal biotin); assay: HTRF epitope competition, purified scFv against Abet0144-GL IgG1-TM (competitor) for biotinylated human Amyloid beta 1-42
T1 construct: Synthetic peptide (rPeptide A1117 or Bachem H-5642); range counted on Amyloid beta; also called N-terminal biotin Abeta 1-42; synthetic biotinylated human Amyloid beta 1-42 peptide

[2] = molecular target: T1, Biotinylated human Amyloid beta 1-42 …; assay: SPR (ProteOn), biotinylated peptide on streptavidin chip, scFv as analyte
[3] = molecular target: T2, Amyloid beta plaques in Tg2576 mouse brain sections (human (transgene in mouse), UniProt P05067 672-713, limits assumed); assay: in vitro immunohistochemistry, core plaques
T2 construct: domain: Amyloid beta; The two APP mutations lie before the first residue of Amyloid beta; also called native Amyloid beta; Tg2576 brain sections

[4] = molecular target: T3, Amyloid beta plaques in human Alzheimer's Disease brain sections (human, UniProt P05067 672-713, limits assumed); assay: in vitro immunohistochemistry, core plaques
T3 construct: domain: Amyloid beta; Paraffin sections treated with formic acid; aggregated native peptide of mixed length; also called native Amyloid beta; human AD brain sections
T3 sequence (P05067 672-713 limits assumed): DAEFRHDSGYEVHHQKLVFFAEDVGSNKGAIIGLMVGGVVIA

T1 sequence (peptide, as listed by the source): as the sequence (P05067 672-713 limits assumed) above
T2 sequence (P05067 672-713 limits assumed): as above

Row | Binder | IC50 [1] [nM] | Kd [2] [nM] | koff [2] [s⁻¹] | kon [2] [M⁻¹ s⁻¹] | plaque staining score [3] | plaque staining score [4]
1 | Abet0328 scFv (scFv, V domains shown) VH: EVQLLESGGGLVQPGGSLRLSCAASSDAFKTDTMWWVRQAPRKGLEWVSVIGAHTNNSAYADSVKGRFTISRDNSKNTLYLQMNSLRAEDTAVYYCAREWMDRSRPYYYYGMDVWGQGTLVTVSS VL: SYELTQPPSVSVSPGQTVSITCSGRNLEDKFASWYQQKPGQSPVLVIYRDDKRPSGVPERFSASNSGHTATLTISGTQATDEADYYCSSQDTVTRVFGGGTKLTVL | 0.55 | 0.729 | 0.000103 | 141000 |  | 
2 | Abet0380-GL IgG1-TM (antibody, V domains shown, Whole human IgG1 with the triple mutation L234F/L235E/P331S (TM) and human lambda light chain constant domain; also called Abet0380-GL (germlined) IgG1-TM) VH: EVQLLESGGGLVQPGGSLRLSCAASMGNFNYQTMWWVRQAPGKGLEWVSVIGKTNENIAYADSVKGRFTISRDNSKNTLYLQMNSLRAEDTAVYYCAREWMDHSRPYYYYGMDVWGQGTLVTVSS VL: SYELTQPPSVSVSPGQTASITCSGHNLEDKFASWYQQKPGQSPVLVIYRDDKRPSGIPERFSASNSGHTATLTISGTQAMDEADYYCSSQDTVTRVFGGGTKLTVL |  |  |  |  | 4 score (0-4) | 3 score (0-4)
3 | Abet0144-GL IgG1-TM (antibody, V domains shown, Whole human IgG1 with the triple mutation L234F/L235E/P331S (TM) and human lambda light chain constant domain; also called Abet0144-GL (germlined) IgG1-TM) VH: EVQLLESGGGLVQPGGSLRLSCAASGFTFSVYTMWWVRQAPGKGLEWVSVIGSSGGTTVYADSVKGRFTISRDNSKNTLYLQMNSLRAEDTAVYYCAREWMDHSRPYYYYGMDVWGQGTLVTVSS VL: SYELTQPPSVSVSPGQTASITCSGHNLEDKFASWYQQKPGQSPVLVIYRDDKRPSGIPERFSASNSGHTATLTISGTQAMDEADYYCQAQDSTTRVFGGGTKLTVL |  |  |  |  | 1 score (0-4) | 1.5 score (0-4)
